From patent US20210062165A1 (TRUSTEES OF PRINCETON UNIVERSITY, published 2021) come the findings set out here.

Series [1] concerns the molecule itself. The series is described as follows: microscopy of self-clustering in yeast (YEZ53), light against dark.
Method: Yeast strains were cultured overnight in a 24 well plate covered with foil. SC media was used to avoid the high auto-fluorescence of YPD. The following day, cultures were diluted 1:20 and allowed to grow for 2 hours such that the cells were in exponential phase. Wells of the microscopy plate were coated using 1 mg/mL Concanavalin A (Sigma) dissolved in 20 mM sodium acetate. After washing wells with ddH2O, yeast cultures were transferred and spun down at 1000 rpm for 3 min. All imaging was carried out using a 60X oil immersion objective (NA 1.4) on a Nikon A1 laser scanning confocal microscope. The laser was used at two different wavelengths: 488 nm for activation of Cry2 and 551 nm for visualization of FusionRed. […] Laser settings were 40% intensity for 488 nm and 30% intensity for 561 nm. Exposure times for both wavelengths was 200 ms.
The target of series [2] is T1, FUS^N-Citrine-PixE fusion protein.
T1 construct: Expressed inside S. cerevisiae cells (strains YEZ231, YEZ232, YEZ555); The listing entry is DNA, not protein; also called FUS^NPixE; EZ-L498
The series is described as follows: microscopy of co-clustering in yeast strain YEZ555, dark against blue light.

B1: FUS^N-FusionRed-Cry2 fusion protein (other)
chain: MASASNDYTQQATQSYGAYPTQPGQGYSQQSSQPYGQQSYSGYSQSTDTSGYGQSSYSSYGQSQNTGYGTQSTPQGYGSTGGYGSSQSSQSSYGQQSSYPGYGQQPAPSSTSGSYGSSSQSSSYGQPQSGSYSQQPSYGGQQQSYGQQQSYNPPQGYGQQNQYNSSSGGGGGGGGGGNYGQDQSSMSSGGGSGGGYGNQDQSGGGGSGGYGQQDRGGGGMVSELIKENMPMKLYMEGTVNNHHFKCTSEGEGKPYEGTQTMRIKVVEGGPLPFAFDILATSFMYGSRTFIKHPPGIPDFFKQSFPEGFTWERVTTYEDGGVLTATQDTSLQDGCLIYNVKVRGVNFPANGPVMQKKTLGWEASTETMYPADGGLEGACDMALKLVGGGHLICNLETTYRSKKPATNLKMPGVYNVDHRLERIKEADDETYVEQHEVAVARYSTGGAGDGGKAATRMKMDKKTIVWFRRDLRIEDNPALAAAAHEGSVFPVFIWCPEEEGQFYPGRASRWWMKQSLAHLSQSLKALGSDLTLIKTHNTISAILDCIRVTGATKVVFNHLYDPVSLVRDHTVKEKLVERGISVQSYNGDLLYEPWEIYCEKGKPFTSFNSYWKKCLDMSIESVMLPPPWRLMPITAAAEAIWACSIEELGLENEAEKPSNALLTRAWSPGWSNADKLLNEFIEKQLIDYAKNSKKVVGNSTSLLSPYLHFGEISVRHVFQCARMKQIIWARDKNSEGEESADLFLRGIGLREYSRYICFNFPFTHEQSLLSHLRFFPWDADVDKFKAWRQGRTGYPLVDAGMRELWATGWMHNRIRVIVSSFAVKFLLLPWKWGMKYFWDTLLDADLECDILGWQYISGSIPDGHELDRLDNPALQGAKYDPEGEYIRQWLPELARLPTEWIHHPWDAPLTVLKASGVELGTNYAKPIVDIDTARELLAKAISRTREAQIMIGAAARDPPVATGSGSGSG
notes: Expressed inside S. cerevisiae cells (strains YEZ53, yNS47); The listing entry is DNA, not protein; also called optoDroplets; optoDroplet
For B1, the binding result in series [1] was “binds”.

B2: sFUS-FusionRed-PixD fusion protein (other)
chain: MASNDYTQQATQSYGAYPTQPGQGYSQQSSQPYGQQSYSGYSQSTDTSGYGQSSYSSYGQSQNTGYGTQSTPQGYGSTGGYGSSQSSQSSYGQQGGGMVSELIKENMPMKLYMEGTVNNHHFKCTSEGEGKPYEGTQTMRIKVVEGGPLPFAFDILATSFMYGSRTFIKHPPGIPDFFKQSFPEGFTWERVTTYEDGGVLTATQDTSLQDGCLIYNVKVRGVNFPANGPVMQKKTLGWEASTETMYPADGGLEGACDMALKLVGGGHLICNLETTYRSKKPATNLKMPGVYNVDHRLERIKEADDETYVEQHEVAVARYSTGGAGDGGKAATRMSLYRLIYSSQGIPNLQPQDLKDILESSQRNNPANGITGLLCYSKPAFLQVLEGECEQVNETYHRIVQDERHHSPQIIECMPIRRRNFEVWSMQAITVNDLSTEQVKTLVLKYSGFTTLRPSAMDPEQCLNFLLDIAKIYELSDNFFLDL
notes: Expressed inside S. cerevisiae cells (strain YEZ555). sFUS is the first 93 amino acids of the FUS^N domain; The listing entry is DNA, not protein; also called sFUS-FR-PixD; EZ-L767
In the case of B2, in series [2], the binding result is given as “binds”.
